# Test results from publication PMC3338718, “Characterization of a Novel ArsR-Like Regulator Encoded by Rv2034 in Mycobacterium tuberculosis”.
# T1: Rv2034AE A32G;E35G (Mycobacterium tuberculosis) (UniProt O53478)
# T1 sequence: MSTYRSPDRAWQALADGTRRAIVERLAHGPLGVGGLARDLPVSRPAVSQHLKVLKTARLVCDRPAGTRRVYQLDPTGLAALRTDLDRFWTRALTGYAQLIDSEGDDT
# T2: Rv2034C61A C61A (Mycobacterium tuberculosis) (UniProt O53478)
# T2 sequence: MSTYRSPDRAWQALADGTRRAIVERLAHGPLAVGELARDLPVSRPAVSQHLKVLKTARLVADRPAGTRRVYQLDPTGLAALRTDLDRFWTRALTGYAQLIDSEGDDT
# T3: Rv2034 (ArsR family regulator) (Mycobacterium tuberculosis, UniProt O53478 1-107)
# T3 sequence: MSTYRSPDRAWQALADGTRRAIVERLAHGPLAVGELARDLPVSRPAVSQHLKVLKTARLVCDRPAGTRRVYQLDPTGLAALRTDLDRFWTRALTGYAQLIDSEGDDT
# Key:
# [1] = target: T1, Rv2034AE A32G;E35G (Mycobacterium tuberculosis); test: EMSA
# [2] = target: T2, Rv2034C61A C61A (Mycobacterium tuberculosis); test: EMSA
# [3] = target: T3, Rv2034 (ArsR family regulator); test: EMSA; 0.1-1.2 uM protein; details: protein: recombinant, tags: N-terminal His6 (pET28a), chain copies: 2, label: 5' label (32P or FITC)
# [4] = target: T3, Rv2034 (ArsR family regulator); test: EMSA; up to 1.2 uM protein; details: protein: recombinant, tags: N-terminal His6 (pET28a), chain copies: 2, label: 5' label (32P or FITC)
molecule,measurement,setting,value
AATTTCTAGAGCCTGCGGCAAGCACGTCGGTTCCATAGCGATCCAGCACGCCGCAATACTAGGGAGCCTCTCTGCCGGTCATCGCCGCGACGCGCCGCATGGGTTCTCGGAAAATGCTTGTACCAGTCGACTTTCCGGCGGGCCAACGTCGCCAACCGATACTCGGCTCCAACGCCATGGGTGACGGGATGCCCGGATCACGTGTCACACCACCCGCGCACCCTTGCGGAAGAATATCCGTAAGTCTAAACTTACGGTTCGAATTCCCGG (double strand) [Rv2034p promoter],binding,[1],no binding
same,binding,[2],no binding
Rv2034BSmu4 (dsDNA) DNA 1: AGAGTTGATACCGTAAGTTAGCACTTACGGACTTAAGGTT DNA 2: AACCTTAAGTCCGTAAGTGCTAACTTACGGTATCAACTCT,binding result,[3],binds
Rv2034BSmu2 (dsDNA) DNA 1: GGAAGAATATGGCATTCACTAAACTGCATGTTCGTGTCCA DNA 2: TGGACACGAACATGCAGTTTAGTGAATGCCATATTCTTCC,binding result,[4]; blunt,no binding
Rv2034BSmu5 (dsDNA) DNA 1: GGAAGAATATGGCATTCACTAACAGGCATATTCGTGTCCA DNA 2: TGGACACGAATATGCCTGTTAGTGAATGCCATATTCTTCC,binding result,[4],no binding
Rv2034BSmu3 (dsDNA) DNA 1: GGAAGAATATCCGTAAGTCTGATAAAACTTACGGTTCGTGTCCA DNA 2: TGGACACGAACCGTAAGTTTTATCAGACTTACGGATATTCTTCC,binding result,[3]; blunt,binds
